Experimental data taken from the supplement of paper PMC9170038.

System: MS2 coat protein
Assay: apparent KD of MS2 coat protein; designed switch direction (-1 OFF switch, 1 ON switch): -1; higher = weaker reporter binding
In short: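 Designed RNA switches were transcribed on Illumina chips by stalled E. coli RNA polymerase and titrated with SNAP-549-labelled MS2 coat protein from 0.7 or 1.5 nM, doubling to 3 µM. Step length ran from 0.8–1.5 h at the lowest concentration to 10–20 min at the highest. The apparent KD is the median over clusters for each design, from curve-fitted normalised cluster fluorescence.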

[1] = Eterna round: R95, input ligand: microRNA oligo, concentration not stated
[2] = input ligand: microRNA oligo, concentration not stated
[3] = Eterna round: R95, input ligand: FMN 200 uM
[4] = Eterna round: R95, input ligand: none

CCAGCGUAUGUGAGGAUAUGCUGGUCCUUGGAUCAGCAGAAGGCACAUGAGGAUCACCCAUGUGAUGACGUUGG [JL bmx4 3.40] (puzzle: Brourd's mod of Exclusion 4)
apparent KD of MS2 coat protein [1]: 42.6 nM

CCAGGAAGGCAGGAUAUCCAAAGCCGUCCCGGCGGAGAAGGGCUAACUUGAGGAUCACCCAAGUGAUGCCUAAC [Oreden] (Eterna round: R97, puzzle: Exclusion 6)
apparent KD of MS2 coat protein (input ligand: FMN 200 uM): 13 nM | apparent KD of MS2 coat protein (input ligand: none): 14.2 nM

CCAGGCAGGCUAUUUGCUCACAUGAGGAUCACCCAUGUUGUAUCCCUUGAAUCUAGAUGGUUCAGGCUUAAUUAUUU [Eternabot (L2) Solution 28] (Eterna round: R97, puzzle: Sensor, turn-off variant 1)
apparent KD of MS2 coat protein (input ligand: FMN 200 uM): 47.5 nM | apparent KD of MS2 coat protein (input ligand: none): 66 nM

CCAGUGUAAGGAUAUGACAAUGGUAUCUUCGGAUACCAUUGUCAGAAGGUACAUGAGGAUCACCCAUGUAACAC [Ex4-3: 12] (puzzle: Exclusion 4)
apparent KD of MS2 coat protein [1]: 15.3 nM

CCAUAUAACUGAGGAUAUCAUCGCAACUGACGUUGAGAAGGCAGACAUGAGGAUCACCCAUGUGAUUUCUCAAUAUUAUACAUC [Prohibition 80 - Jieux - Exclusion NG 1] (Eterna round: R96, puzzle: Exclusion NG 1)
apparent KD of MS2 coat protein (input ligand: FMN 200 uM): 245 nM | apparent KD of MS2 coat protein [2]: 31.2 nM | apparent KD of MS2 coat protein (input ligand: none): 61.1 nM

CCAUCGAGUGUGAGGAUAUGCUGGUCAAUAGAUCAGCAGAAGGCACAUGAGGAUCACCCAUGUGGAGACGGUGG [Mat - Exclusion 4 - JL Mod - D79] (puzzle: Brourd's mod of Exclusion 4)
apparent KD of MS2 coat protein [3]: 333 nM | apparent KD of MS2 coat protein [1]: 44.8 nM | apparent KD of MS2 coat protein [4]: 70.6 nM

CCAUCGUGUGUGAGGAUAUGCUGGACCUUGGUUCAGCAGAAGGCACAUGAGGAUCACCCAUGUGAAGACGGUGG [Mat - Exclusion 4 - JL Mod - D89] (puzzle: Brourd's mod of Exclusion 4)
apparent KD of MS2 coat protein [3]: 51.4 nM | apparent KD of MS2 coat protein [1]: 24.6 nM | apparent KD of MS2 coat protein [4]: 18.1 nM

CCAUGGGAGCGAGGAUAUAGCCCAUGGGAAGAGCUAGAAGGCGCAGACAUGAGGAUCACCCAUGUGUUCAUGAGGAGGUGGACA (Eterna round: R96, puzzle: Exclusion NG 1)
apparent KD of MS2 coat protein (input ligand: FMN 200 uM): 95.5 nM | apparent KD of MS2 coat protein [2]: 47.9 nM | apparent KD of MS2 coat protein (input ligand: none): 73.7 nM

CCAUGUUAGCAGGAUAUGCCAUUAUUCCUUUACGCAGAAGGGCUUACAUGAGGAUCACCCAUGUAACAUUUCAU [JR_E6_Sub083] (puzzle: Exclusion 6)
apparent KD of MS2 coat protein [1]: 14.1 nM

CCAUUAUAAGGAUAUACAUGAGGAUCACCCAUGUACAGGUUAGUUGUACGUACACCGAGUAGAAGGUAUAGAGG [Eternabot (L1) Solution 21] (Eterna round: R97, puzzle: Exclusion 3)
apparent KD of MS2 coat protein (input ligand: FMN 200 uM): 62.5 nM | apparent KD of MS2 coat protein (input ligand: none): 63.4 nM

CCCAGAUAAGGAUAUUGAAGGUUCGACAUGAGGAUCACCCAUGUUAUGUUGGAAAAGGGACAAGAAGGUAUGAAAA [salish99_ex5_r4_216] (Eterna round: R97, puzzle: Exclusion 5)
apparent KD of MS2 coat protein (input ligand: FMN 200 uM): 31.2 nM | apparent KD of MS2 coat protein (input ligand: none): 33.1 nM

CCCAGUUAGAGAGGAUAUCGUACAUGAGGAUCACCCAUGUAAUAAAUGAGGAUUUCGGGUGUCUGCGAGAAGGCUCGGAUAGGC [Ostracism 31 - Jieux - Exclusion NG 2] (Eterna round: R96, puzzle: Exclusion NG 2)
apparent KD of MS2 coat protein (input ligand: FMN 200 uM): 105 nM | apparent KD of MS2 coat protein [2]: 32.9 nM | apparent KD of MS2 coat protein (input ligand: none): 47 nM

CCCAGUUAGGAAGGAUAUUGUACAUGAGGAUCACCCAUGUAAUAAAUGAGGAUUUCGGGUGUCUACAAGAAGGUCCGGAUAGGC [Ostracism 13 - Jieux - Exclusion NG 2] (Eterna round: R96, puzzle: Exclusion NG 2)
apparent KD of MS2 coat protein (input ligand: FMN 200 uM): 110 nM | apparent KD of MS2 coat protein [2]: 39.2 nM | apparent KD of MS2 coat protein (input ligand: none): 59.4 nM

CCCAGUUAGUCAGGAUAUCAUACAUGAGGAUCACCCAUGUAAUAAAUGAGGAUUUCGGGUGUCUAUGAGAAGGGACGGAUAGGC [Ostracism 28 - Jieux - Exclusion NG 2] (Eterna round: R96, puzzle: Exclusion NG 2)
apparent KD of MS2 coat protein (input ligand: FMN 200 uM): 29.6 nM | apparent KD of MS2 coat protein [2]: 18.8 nM | apparent KD of MS2 coat protein (input ligand: none): 24.5 nM

CCCAGUUAGUGAGGAUAUCAUACAUGAGGAUCACCCAUGUAAUAAAUGAGGAUUUCGGGUGUCUAUGAGAAGGCACGGAUAGGC [Ostracism 26 - Jieux - Exclusion NG 2] (Eterna round: R96, puzzle: Exclusion NG 2)
apparent KD of MS2 coat protein (input ligand: FMN 200 uM): 27.2 nM | apparent KD of MS2 coat protein [2]: 22.2 nM | apparent KD of MS2 coat protein (input ligand: none): 30.4 nM

CCCAUAUUGGAAGGAUAUUACCACAUGAGGAUCACCCAUGUGGUUUAAGGCUUACAACGACGUGGUAAGAAGGUCCAUUAUAUG [Eternabot solution 45] (Eterna round: R96, puzzle: Exclusion NG 2)
apparent KD of MS2 coat protein (input ligand: FMN 200 uM): 28.1 nM | apparent KD of MS2 coat protein [2]: 13.7 nM | apparent KD of MS2 coat protein (input ligand: none): 15.4 nM

CCCAUGUCAGGAUAUUAAUUGGGCGGGAAAUCCCACCCACUUGAGAAGGGACAUGAGGAUCACCCAUGUAAAAC [Indila] (Eterna round: R97, puzzle: Exclusion 4)
apparent KD of MS2 coat protein (input ligand: FMN 200 uM): 66.6 nM | apparent KD of MS2 coat protein (input ligand: none): 629 nM

CCCAUGUCAGGAUAUUAGAUACUGCCGCAAAACAAAGGCAUUGAGAAGGGACAUGAGGAUCACCCAUGUAAAAC [Soraxerila] (Eterna round: R97, puzzle: Exclusion 4)
apparent KD of MS2 coat protein (input ligand: FMN 200 uM): 112 nM | apparent KD of MS2 coat protein (input ligand: none): 326 nM

CCCGAACAUGAGGAUCACCCAUGUCAGGAUAUAUUGCAGUGCAGAGCGCGUGCUAAGGAUAGAAGGGACAUGAA [Eternabot (L2) Solution 62] (Eterna round: R97, puzzle: Exclusion 1)
apparent KD of MS2 coat protein (input ligand: FMN 200 uM): 31.4 nM | apparent KD of MS2 coat protein (input ligand: none): 29 nM

CCCGCAGGUUUUUUGCUCGACAUGAGGAUCACCCAUGUUGUAUGGGUUGUGUGUGUGUGGUGCAUAUAUAUGGUCCU [-25.6, -47.7 kcal, A 16%] (Eterna round: R97, puzzle: Sensor, turn-off variant 1)
apparent KD of MS2 coat protein (input ligand: FMN 200 uM): 427 nM | apparent KD of MS2 coat protein (input ligand: none): 655 nM

CCCGGGCGAGGAUAUACAUGAGGAUCACCCAUGUUGGGCUAGUUGGUGGCUCCUCGCGGUAGAAGGCGCACGCG [Edna] (puzzle: Exclusion 3)
apparent KD of MS2 coat protein [3]: 123 nM | apparent KD of MS2 coat protein [1]: 64.5 nM | apparent KD of MS2 coat protein [4]: 74.6 nM

CCCGGGUUAGGAUAUGGGCCCGGGCCCGAAAGGGCCCGGGCCCAGAAGGGACAUGAGGAUCACCCAUGUCCGGG [-53.1, -49.1 kcal, 20% A] (Eterna round: R97, puzzle: Exclusion 4)
apparent KD of MS2 coat protein (input ligand: FMN 200 uM): 22.1 nM | apparent KD of MS2 coat protein (input ligand: none): 19.9 nM

CCCGUCGAUGUAGGAUAUGCCCGGGUCUCCCGGGCAGAAGGACAUGAGGAUCACCCAUGUUCAUGAGCAUCAGCCAUGAAUGGG [Double but mutated MS2] (Eterna round: R96, puzzle: Exclusion NG 1)
apparent KD of MS2 coat protein (input ligand: FMN 200 uM): 12.8 nM | apparent KD of MS2 coat protein [2]: 12.7 nM | apparent KD of MS2 coat protein (input ligand: none): 20.2 nM

CCCGUGUUAGGAUAUACGGCACACCCACAAACGGGUAUAUAGUAGAAGGAACAUGAGGAUCACCCAUGUAAAAC [Qubexeer] (puzzle: Exclusion 4)
apparent KD of MS2 coat protein [1]: 18.5 nM

CCCUCACAUGAGGAUCACCCAUGUAAGGAUAUCUUCGAUUUGACGUGGUUGGAUGCGAAGAGAAGGUACAAGGC [jl-ex1-4.72 ViennaUCT mod] (Eterna round: R97, puzzle: Exclusion 1)
apparent KD of MS2 coat protein (input ligand: FMN 200 uM): 35.9 nM | apparent KD of MS2 coat protein (input ligand: none): 20.6 nM

CCCUCACAUGAGGAUCACCCAUGUCAGGAUAUCUCACAUCAGCCUUAGGCCGAUGUCUAGAGAAGGGACGUAUC [Latees] (puzzle: Exclusion 1)
apparent KD of MS2 coat protein [1]: 21.3 nM

CCCUGCAACUGAGGAUAUCACGGACACCGACGUUGAGAAGGCAGACAUGAGGAUCACCCAUGUGAUUUCUCAAUGCUAAACAUU (Eterna round: R96, puzzle: Exclusion NG 1)
apparent KD of MS2 coat protein (input ligand: FMN 200 uM): 66.4 nM | apparent KD of MS2 coat protein [2]: 29.6 nM | apparent KD of MS2 coat protein (input ligand: none): 36.8 nM

CCGAAAAUGCAGGAUAUCGUAUCGGAAACGAUACGAGAAGGGCAAACAUGAGGAUCACCCAUGUUCCUUAACGG [Mat - Exclusion 6 - Eli Mod - D76] (puzzle: Exclusion 6)
apparent KD of MS2 coat protein [3]: 21.3 nM | apparent KD of MS2 coat protein [1]: 19.4 nM | apparent KD of MS2 coat protein [4]: 18.9 nM

CCGAAUAAGCAGGAUAUCGUAUCGGAAACGAUACGAGAAGGGCUAACAUGAGGAUCACCCAUGUUCCUUAACGG [Fiskers Ex 6 - 15] (puzzle: Exclusion 6)
apparent KD of MS2 coat protein [1]: 19.2 nM

CCGACCCUAGGAUAUUGUACUGCUGACAUGAGGAUCACCCAUGUAUGUUAACUCGGCCGACGAGAAGGAGGCGAAA [BotMod 5 - Jieux - Exclusion 5] (Eterna round: R97, puzzle: Exclusion 5)
apparent KD of MS2 coat protein (input ligand: FMN 200 uM): 21.7 nM | apparent KD of MS2 coat protein (input ligand: none): 20.3 nM

CCGACGUGAGGAUAUCCAUCUGGAUCAGACUAGAUCCUGAUGGAGAAGGCACAUGAGGAUCACCCAUGUCACGG [Eli 4x 4.48] (Eterna round: R97, puzzle: Exclusion 4)
apparent KD of MS2 coat protein (input ligand: FMN 200 uM): 413 nM | apparent KD of MS2 coat protein (input ligand: none): 140 nM

CCGAGCAAGGUGAGGAUAUUAAGAGCUACAGAGCAUGAGAAGGCACAUGAGGAUCACCCAUGUUACUACAGGGA [Eternabot (L1) Solution 66] (Eterna round: R97, puzzle: Brourd's mod of Exclusion 4)
apparent KD of MS2 coat protein (input ligand: FMN 200 uM): 54.9 nM | apparent KD of MS2 coat protein (input ligand: none): 54 nM

CCGAGCAGACGGAGAUCCAACAUGAGGAUCACCCAUGUCUCAAAAGCUUUUUGCUUGUCUUAUUCUCCUCUGUUCUC [Qureorxe] (Eterna round: R96, puzzle: Sensor v3, turn-off variant 1)
apparent KD of MS2 coat protein (input ligand: FMN 200 uM): 13 nM | apparent KD of MS2 coat protein [2]: 29.6 nM | apparent KD of MS2 coat protein (input ligand: none): 15.6 nM

CCGAGCAGACGGAGAUCCAACAUGAGGAUCACCCAUGUCUCAAAAGCUUUUUGCUUGUCUUAUUCUCCUCUGUUCUC [Qureorxe] (puzzle: Sensor v3, turn-off variant 1)
apparent KD of MS2 coat protein [3]: 12.5 nM | apparent KD of MS2 coat protein [1]: 29.2 nM | apparent KD of MS2 coat protein [4]: 11.3 nM
